Measurements taken from US20240261333A1, “NOVEL TARGETS FOR ENHANCING ANTI-TUMOR IMMUNITY” (THE BROAD INSTITUTE, INC., priority 2021, published 2024).

What was measured:
[1] = molecular target: PPIA (UniProt P62937); assay: co-IP with anti-FLAG, mass spectrometry; N-FLAG B3GNT2
[2] = molecular target: AHNAK (UniProt Q09666); assay: as above
[3] = molecular target: TRIM21 (UniProt P19474); assay: as above
[4] = molecular target: YWHAZ (UniProt P63104); assay: as above
[5] = molecular target: SERPINB12 (UniProt Q96P63); assay: as above
[6] = molecular target: ENO1 (UniProt P06733); assay: as above
Sequence of ENO1 (P06733 2-434 limits assumed): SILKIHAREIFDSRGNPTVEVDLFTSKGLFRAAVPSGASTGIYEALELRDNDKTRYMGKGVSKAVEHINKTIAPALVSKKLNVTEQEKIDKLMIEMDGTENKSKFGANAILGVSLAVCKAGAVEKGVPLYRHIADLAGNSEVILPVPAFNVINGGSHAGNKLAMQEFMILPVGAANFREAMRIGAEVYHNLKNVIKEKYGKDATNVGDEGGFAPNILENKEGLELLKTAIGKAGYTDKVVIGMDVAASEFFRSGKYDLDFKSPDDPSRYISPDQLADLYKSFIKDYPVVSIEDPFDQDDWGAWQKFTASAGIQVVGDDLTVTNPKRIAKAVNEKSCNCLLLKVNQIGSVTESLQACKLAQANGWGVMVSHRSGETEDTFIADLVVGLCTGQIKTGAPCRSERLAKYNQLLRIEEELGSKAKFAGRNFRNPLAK

[7] = molecular target: FABP5 (UniProt Q01469); assay: as above
Sequence of FABP5 (Q01469 2-135 limits assumed): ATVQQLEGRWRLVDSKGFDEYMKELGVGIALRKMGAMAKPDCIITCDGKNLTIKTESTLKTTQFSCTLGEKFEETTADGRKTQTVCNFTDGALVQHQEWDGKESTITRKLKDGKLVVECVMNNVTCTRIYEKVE

[8] = molecular target: PCMT1 (UniProt P22061); assay: as above
[9] = molecular target: ATP5F1B (UniProt P06576); assay: as above
Sequence of ATP5F1B (P06576 48-529 limits assumed): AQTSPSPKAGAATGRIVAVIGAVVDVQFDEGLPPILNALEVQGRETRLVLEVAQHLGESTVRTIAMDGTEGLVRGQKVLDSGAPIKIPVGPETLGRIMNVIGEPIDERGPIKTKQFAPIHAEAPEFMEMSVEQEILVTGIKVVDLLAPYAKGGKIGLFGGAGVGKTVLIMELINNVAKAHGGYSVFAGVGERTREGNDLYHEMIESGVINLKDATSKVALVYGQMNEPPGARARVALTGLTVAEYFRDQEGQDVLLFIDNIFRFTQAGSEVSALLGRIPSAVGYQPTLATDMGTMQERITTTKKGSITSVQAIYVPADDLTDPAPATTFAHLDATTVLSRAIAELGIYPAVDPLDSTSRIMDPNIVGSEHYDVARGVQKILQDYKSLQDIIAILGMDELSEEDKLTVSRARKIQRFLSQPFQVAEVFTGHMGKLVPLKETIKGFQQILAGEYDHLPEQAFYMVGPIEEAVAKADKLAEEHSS

[10] = molecular target: SPRR2E (UniProt P22531); assay: as above
Sequence of SPRR2E (P22531 whole entry): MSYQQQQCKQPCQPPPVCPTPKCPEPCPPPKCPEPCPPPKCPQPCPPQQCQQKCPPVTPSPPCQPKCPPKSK

[11] = molecular target: STRAP (UniProt Q9Y3F4); assay: as above
[12] = molecular target: S100A9 (UniProt P06702); assay: as above
[13] = molecular target: ACTR3 (UniProt P61158); assay: as above
[14] = molecular target: UBA52 (UniProt P62987); assay: as above
[15] = molecular target: SSR1 (UniProt P43307); assay: as above
Sequence of SSR1 (P43307 19-286 limits assumed): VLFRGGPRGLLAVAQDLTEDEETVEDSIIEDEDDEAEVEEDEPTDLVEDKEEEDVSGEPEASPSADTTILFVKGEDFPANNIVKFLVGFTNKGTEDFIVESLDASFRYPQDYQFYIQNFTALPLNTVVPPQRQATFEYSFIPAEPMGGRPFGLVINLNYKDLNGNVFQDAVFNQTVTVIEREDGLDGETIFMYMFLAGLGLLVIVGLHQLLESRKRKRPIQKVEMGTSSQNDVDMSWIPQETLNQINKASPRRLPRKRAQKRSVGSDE

[16] = molecular target: S100A8 (UniProt P05109); assay: as above
[17] = molecular target: PBXIP1 (UniProt Q96AQ6); assay: co-IP, IgG control, C-FLAG B3GNT2 cell lysate, mass spectrometry
Sequence of PBXIP1 (Q96AQ6 30-731 limits assumed): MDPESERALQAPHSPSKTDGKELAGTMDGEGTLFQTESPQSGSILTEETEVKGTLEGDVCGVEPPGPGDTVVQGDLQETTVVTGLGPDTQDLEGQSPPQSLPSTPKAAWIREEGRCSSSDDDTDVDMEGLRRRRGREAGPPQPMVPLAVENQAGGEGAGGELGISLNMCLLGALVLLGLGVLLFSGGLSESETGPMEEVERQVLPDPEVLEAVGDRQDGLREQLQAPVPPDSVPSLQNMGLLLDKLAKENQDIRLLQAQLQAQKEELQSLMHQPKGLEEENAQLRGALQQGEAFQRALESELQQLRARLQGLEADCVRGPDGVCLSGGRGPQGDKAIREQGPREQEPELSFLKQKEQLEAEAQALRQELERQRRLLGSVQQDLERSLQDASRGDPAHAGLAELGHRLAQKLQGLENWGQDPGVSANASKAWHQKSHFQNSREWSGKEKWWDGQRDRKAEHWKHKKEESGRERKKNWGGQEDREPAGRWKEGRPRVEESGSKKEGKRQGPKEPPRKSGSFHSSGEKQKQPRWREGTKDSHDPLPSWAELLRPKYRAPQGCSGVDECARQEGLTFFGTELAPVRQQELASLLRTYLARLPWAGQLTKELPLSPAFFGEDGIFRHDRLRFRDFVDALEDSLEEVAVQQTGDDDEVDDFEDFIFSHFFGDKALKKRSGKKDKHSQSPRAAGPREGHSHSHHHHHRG

[18] = molecular target: RPS23 (UniProt P62266); assay: as above
[19] = molecular target: RPS13 (UniProt P62277); assay: as above
[20] = molecular target: RPL35 (UniProt P42766); assay: as above
[21] = molecular target: DEFA3 (UniProt P59666); assay: as above
Sequence of DEFA3 (P59666 65-94 limits assumed): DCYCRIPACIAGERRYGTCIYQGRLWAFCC

[22] = molecular target: NCCRP1 (UniProt Q6ZVX7); assay: as above
[23] = molecular target: DDX20 (UniProt Q9UHI6); assay: as above
[24] = molecular target: LIMA1 (UniProt Q9UHB6); assay: as above
[25] = molecular target: DNAJA2 (UniProt O60884); assay: as above
Sequence of DNAJA2 (O60884 1-409 limits assumed): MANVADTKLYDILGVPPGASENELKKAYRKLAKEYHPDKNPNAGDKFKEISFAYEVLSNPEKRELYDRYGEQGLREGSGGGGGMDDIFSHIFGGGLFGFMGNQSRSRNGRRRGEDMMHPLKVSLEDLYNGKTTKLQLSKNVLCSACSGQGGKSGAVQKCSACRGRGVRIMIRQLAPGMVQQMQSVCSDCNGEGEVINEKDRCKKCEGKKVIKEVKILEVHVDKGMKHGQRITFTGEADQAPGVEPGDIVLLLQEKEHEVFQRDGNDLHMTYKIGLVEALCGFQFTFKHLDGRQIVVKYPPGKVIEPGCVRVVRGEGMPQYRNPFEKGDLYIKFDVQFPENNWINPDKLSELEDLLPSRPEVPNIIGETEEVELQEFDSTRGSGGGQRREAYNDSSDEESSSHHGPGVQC

[26] = molecular target: RPS8 (UniProt P62241); assay: as above
[27] = molecular target: RPS16 (UniProt P62249); assay: as above
[28] = molecular target: RPS19 (UniProt P39019); assay: as above
[29] = molecular target: RPL37A (UniProt P61513); assay: as above
[30] = molecular target: ARG1 (UniProt P05089); assay: as above
[31] = molecular target: RPL27A (UniProt P46776); assay: as above
[32] = molecular target: TIMP3 (human) (UniProt P35625); assay: IgG control IP from lysate of cells overexpressing N-FLAG B3GNT2, then mass spectrometry
[33] = molecular target: TCP1 (human) (UniProt P17987); assay: as above
[34] = molecular target: EIF3I (human) (UniProt Q13347); assay: as above
[35] = molecular target: VIM (human) (UniProt P08670); assay: as above
[36] = molecular target: CPSF6 (human) (UniProt Q16630); assay: as above
Sequence of CPSF6 (human) (Q16630 other isoform, or with tags, fused parts or gaps limits assumed): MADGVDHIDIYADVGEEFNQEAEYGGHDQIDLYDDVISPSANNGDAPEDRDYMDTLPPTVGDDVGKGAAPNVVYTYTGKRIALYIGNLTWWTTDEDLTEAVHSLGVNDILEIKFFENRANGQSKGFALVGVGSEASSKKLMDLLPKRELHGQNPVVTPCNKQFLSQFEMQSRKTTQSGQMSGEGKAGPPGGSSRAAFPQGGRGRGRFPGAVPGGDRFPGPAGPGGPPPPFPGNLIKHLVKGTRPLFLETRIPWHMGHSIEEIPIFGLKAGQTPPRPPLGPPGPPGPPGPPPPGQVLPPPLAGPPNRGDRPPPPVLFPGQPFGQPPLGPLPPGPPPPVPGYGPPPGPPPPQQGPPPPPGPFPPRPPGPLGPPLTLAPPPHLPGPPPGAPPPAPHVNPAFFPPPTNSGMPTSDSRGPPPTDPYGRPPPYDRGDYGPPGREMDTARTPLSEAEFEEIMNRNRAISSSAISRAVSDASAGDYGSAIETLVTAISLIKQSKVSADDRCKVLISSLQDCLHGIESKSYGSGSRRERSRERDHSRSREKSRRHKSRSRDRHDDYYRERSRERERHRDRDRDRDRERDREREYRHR

[37] = molecular target: TAF15 (human) (UniProt Q92804); assay: as above
[38] = molecular target: MAGED2 (human) (UniProt Q9UNF1); assay: as above
[39] = molecular target: KHDRBS1 (human) (UniProt Q07666); assay: as above
Sequence of KHDRBS1 (human) (Q07666 whole entry): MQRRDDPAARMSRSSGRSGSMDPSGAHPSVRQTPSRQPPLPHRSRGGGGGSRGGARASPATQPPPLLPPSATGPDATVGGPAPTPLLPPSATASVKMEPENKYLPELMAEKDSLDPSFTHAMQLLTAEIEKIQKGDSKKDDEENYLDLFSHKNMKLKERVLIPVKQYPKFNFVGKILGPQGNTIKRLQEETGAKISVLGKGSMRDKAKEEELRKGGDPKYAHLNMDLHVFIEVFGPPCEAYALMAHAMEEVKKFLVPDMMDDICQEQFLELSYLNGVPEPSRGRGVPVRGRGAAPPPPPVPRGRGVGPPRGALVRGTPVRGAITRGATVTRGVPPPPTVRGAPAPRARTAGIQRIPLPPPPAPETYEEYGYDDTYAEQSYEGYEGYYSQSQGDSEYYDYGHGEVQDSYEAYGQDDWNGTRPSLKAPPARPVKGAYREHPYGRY

[40] = molecular target: CAPRIN1 (human) (UniProt Q14444); assay: as above
Sequence of CAPRIN1 (human) (Q14444 2-709 limits assumed): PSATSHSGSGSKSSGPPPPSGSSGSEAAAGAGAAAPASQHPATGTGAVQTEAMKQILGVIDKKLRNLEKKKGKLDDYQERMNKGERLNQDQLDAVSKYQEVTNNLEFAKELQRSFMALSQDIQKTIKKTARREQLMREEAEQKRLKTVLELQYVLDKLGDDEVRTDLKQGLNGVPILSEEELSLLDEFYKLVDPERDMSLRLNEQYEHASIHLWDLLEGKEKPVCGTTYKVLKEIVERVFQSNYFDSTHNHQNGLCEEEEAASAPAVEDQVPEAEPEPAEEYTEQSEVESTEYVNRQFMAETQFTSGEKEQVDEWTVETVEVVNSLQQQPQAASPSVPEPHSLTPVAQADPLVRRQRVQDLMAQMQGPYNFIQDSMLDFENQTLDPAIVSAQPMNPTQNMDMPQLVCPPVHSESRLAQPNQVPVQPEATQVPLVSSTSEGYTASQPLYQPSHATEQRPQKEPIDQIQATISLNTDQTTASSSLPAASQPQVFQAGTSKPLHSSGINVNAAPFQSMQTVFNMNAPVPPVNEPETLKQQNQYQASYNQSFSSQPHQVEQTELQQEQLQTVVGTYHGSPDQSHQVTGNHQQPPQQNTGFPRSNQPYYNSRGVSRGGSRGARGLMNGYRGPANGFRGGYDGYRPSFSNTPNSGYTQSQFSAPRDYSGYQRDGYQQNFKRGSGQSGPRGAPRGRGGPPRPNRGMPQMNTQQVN

Sequence of TRIM21 (P19474 whole entry): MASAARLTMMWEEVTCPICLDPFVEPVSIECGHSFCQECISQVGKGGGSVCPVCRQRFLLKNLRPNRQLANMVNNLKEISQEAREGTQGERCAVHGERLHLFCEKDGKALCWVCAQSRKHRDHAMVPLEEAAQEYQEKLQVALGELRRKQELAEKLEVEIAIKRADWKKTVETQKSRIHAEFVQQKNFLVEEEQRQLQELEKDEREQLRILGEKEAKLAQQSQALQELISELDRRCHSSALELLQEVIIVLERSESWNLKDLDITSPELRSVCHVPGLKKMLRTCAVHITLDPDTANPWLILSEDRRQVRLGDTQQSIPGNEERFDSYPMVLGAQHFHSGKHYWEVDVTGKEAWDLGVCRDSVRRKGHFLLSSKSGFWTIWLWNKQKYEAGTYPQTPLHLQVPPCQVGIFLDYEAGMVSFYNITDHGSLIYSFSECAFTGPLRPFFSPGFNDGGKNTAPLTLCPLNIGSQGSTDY
Sequence of PPIA (P62937 2-165 limits assumed): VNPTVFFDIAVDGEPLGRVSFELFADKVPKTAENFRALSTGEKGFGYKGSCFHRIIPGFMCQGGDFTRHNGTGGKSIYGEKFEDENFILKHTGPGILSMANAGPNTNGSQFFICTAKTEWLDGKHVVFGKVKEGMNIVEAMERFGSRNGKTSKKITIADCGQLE

N-terminal FLAG tagged B3GNT2 (from UniProt Q9NY97 1-397) (enzyme)
co-IP mass spectrometry count [1]: 6
co-IP mass spectrometry count [2]: 3
co-IP mass spectrometry count [3]: 6
co-IP mass spectrometry count [4]: 2
co-IP mass spectrometry count [5]: 4
co-IP mass spectrometry count [6]: 5
co-IP mass spectrometry count [7]: 6
co-IP mass spectrometry count [8]: 4
co-IP mass spectrometry count [9]: 2
co-IP mass spectrometry count [10]: 16
co-IP mass spectrometry count [11]: 4
co-IP mass spectrometry count [12]: 18
co-IP mass spectrometry count [13]: 3
co-IP mass spectrometry count [14]: 4
co-IP mass spectrometry count [15]: 3
co-IP mass spectrometry count [16]: 15

IgG control (Millipore Sigma 12-371) (antibody)
co-IP mass spectrometry count [17]: 0
co-IP mass spectrometry count [18]: 9
co-IP mass spectrometry count [19]: 2
co-IP mass spectrometry count [20]: 0
co-IP mass spectrometry count [21]: 5
co-IP mass spectrometry count [22]: 0
co-IP mass spectrometry count [23]: 0
co-IP mass spectrometry count [24]: 0
co-IP mass spectrometry count [25]: 0
co-IP mass spectrometry count [26]: 6
co-IP mass spectrometry count [27]: 8
co-IP mass spectrometry count [28]: 3
co-IP mass spectrometry count [29]: 3
co-IP mass spectrometry count [30]: 4
co-IP mass spectrometry count [31]: 0
co-IP mass spectrometry count (N-term IgG) [32]: 0
co-IP mass spectrometry count (N-term IgG) [33]: 0
co-IP mass spectrometry count (N-term IgG) [34]: 0
co-IP mass spectrometry count (N-term IgG) [35]: 452
co-IP mass spectrometry count (N-term IgG) [36]: 28
co-IP mass spectrometry count (N-term IgG) [37]: 10
co-IP mass spectrometry count (N-term IgG) [38]: 0
co-IP mass spectrometry count (N-term IgG) [39]: 10
co-IP mass spectrometry count (N-term IgG) [40]: 6
